{
  "source": "paper doi:10.1101/2021.07.02.450967",
  "about": "(bioRxiv, 2021)",
  "binders": {"B1": {"name": "HEY1, made in the cell-free protein production system (natural protein)", "chain": "MKRAHPEYSSSDSELDETIEVEKESADENGNLSSALGSMSPTTSSQILARKRRRGIIEKRRRDRINNSLSELRRLVPSAFEKQGSAKLEKAEILQMTVDHLKMLHTAGGKGYFDAHALAMDYRSLGFRECLAEVARYLSIIEGLDASDPLRVRLVSHLNNYASQREAASGAHAGLGHIPWGTVFGHHPHIAHPLLLPQNGHGNAGTTASPTEPHHQGRLGSAHPEAPALRAPPSGSLGPVLPVVTSASKLSPPLLSSVASLSAFPFSFGSFHLLSPNALSPSAPTQAANLGKPYRPWGTEIGAF"}},
  "target": "T1, SOX7, made in the cell-free protein production system (UniProt Q9BT81 1-388)",
  "T1 sequence": "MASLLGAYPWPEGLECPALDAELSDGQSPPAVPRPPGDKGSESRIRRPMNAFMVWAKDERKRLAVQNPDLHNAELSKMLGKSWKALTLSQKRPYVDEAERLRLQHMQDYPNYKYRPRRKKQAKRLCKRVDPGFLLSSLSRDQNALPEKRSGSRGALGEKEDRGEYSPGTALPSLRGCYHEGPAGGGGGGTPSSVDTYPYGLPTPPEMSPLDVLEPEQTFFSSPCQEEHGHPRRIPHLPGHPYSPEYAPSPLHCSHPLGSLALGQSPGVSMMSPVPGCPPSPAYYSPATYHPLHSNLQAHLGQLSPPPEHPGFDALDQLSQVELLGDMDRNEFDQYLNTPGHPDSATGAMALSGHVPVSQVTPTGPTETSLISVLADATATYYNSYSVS",
  "test": "single molecule two-colour coincidence spectroscopy",
  "note": "Several values for one entry are separate records, joined by “and”; a condition that tells them apart may be missing. Equal entries are not always repeated.",
  "data": [
    {"binder": "B1", "values": [
      {"measurement": "stoichiometry N", "result": "1 HEY1 per SOX7 (1:1) and 2 HEY1 per SOX7 (1:2, order as printed)"}
    ]}
  ]
}
